T1: Human IL-2Rβ/γ (intermediate affinity IL-2 receptor) (human, UniProt P14784 27-551; P31785 23-369)
T1 sequence (looked up) 1: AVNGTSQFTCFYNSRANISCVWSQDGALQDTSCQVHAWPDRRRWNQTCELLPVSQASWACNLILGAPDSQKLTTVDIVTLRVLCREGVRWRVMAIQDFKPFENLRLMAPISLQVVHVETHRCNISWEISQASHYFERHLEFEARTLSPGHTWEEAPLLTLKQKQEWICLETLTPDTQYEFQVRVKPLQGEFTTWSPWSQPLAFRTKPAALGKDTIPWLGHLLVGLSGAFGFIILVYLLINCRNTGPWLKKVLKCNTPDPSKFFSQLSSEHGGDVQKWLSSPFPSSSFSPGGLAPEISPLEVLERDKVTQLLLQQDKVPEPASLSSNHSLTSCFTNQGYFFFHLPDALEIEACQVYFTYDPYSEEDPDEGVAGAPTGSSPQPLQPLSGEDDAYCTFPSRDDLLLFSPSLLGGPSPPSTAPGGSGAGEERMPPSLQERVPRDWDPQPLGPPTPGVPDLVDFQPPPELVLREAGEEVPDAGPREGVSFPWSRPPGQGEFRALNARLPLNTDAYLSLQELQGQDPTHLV
T1 sequence (looked up) 2: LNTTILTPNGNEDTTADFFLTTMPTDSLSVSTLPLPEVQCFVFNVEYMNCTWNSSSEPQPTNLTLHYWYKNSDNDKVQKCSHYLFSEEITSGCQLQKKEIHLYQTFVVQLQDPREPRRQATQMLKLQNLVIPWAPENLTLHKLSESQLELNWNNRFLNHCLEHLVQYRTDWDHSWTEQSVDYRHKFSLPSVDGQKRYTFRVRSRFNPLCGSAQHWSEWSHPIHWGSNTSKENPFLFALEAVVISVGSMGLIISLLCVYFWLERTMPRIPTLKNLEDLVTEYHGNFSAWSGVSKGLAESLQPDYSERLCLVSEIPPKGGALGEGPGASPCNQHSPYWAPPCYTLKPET

T2: Human IL-2Rα/β/γ complex (high affinity IL-2 receptor) (human, UniProt P01589 22-272; P14784 27-551; P31785 23-369)
T2 sequence (looked up) 1: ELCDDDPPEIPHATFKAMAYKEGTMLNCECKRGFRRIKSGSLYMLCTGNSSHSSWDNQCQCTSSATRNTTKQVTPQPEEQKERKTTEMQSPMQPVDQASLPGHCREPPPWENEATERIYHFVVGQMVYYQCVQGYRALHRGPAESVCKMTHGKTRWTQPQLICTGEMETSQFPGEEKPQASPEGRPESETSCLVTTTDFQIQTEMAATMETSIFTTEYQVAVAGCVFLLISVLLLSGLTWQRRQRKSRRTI
T2 sequence (looked up) 2: T1 sequence (looked up) 1
T2 sequence (looked up) 3: T1 sequence (looked up) 2

B1: W3XX115-T2U0.E44-28.uIgG4V1 (Fc fusion)
chain: APTSSSTKKTQLQLEHLLLDLQMILNGINNYKNPKLTRMLTFKFYMPKKATELKHLQCLEEELKPLEEVLNLAQSKNFHLRPRDLISNINVIVLELKGSETTFMCEYADETATIVEFLNRWITFCQSIAESKYGPPCPPCPAPEFLGGPSVFLFPPKPKDTLMISRTPEVTCVVVDVSQEDPEVQFNWYVDGVEVHNAKTKPREEQFNSTYRVVSVLTVLHQDWLNGKEYKCKVSNKGLPSSIEKTISKAKGQPREPQVYTLPPCQEEMTKNQVSLWCLVKGFYPSDIAVEWESNGQPENNYKTTPPVLDSDGSFFLYSRLTVDKSRWQEGNVFSCSVMHEALHNHYTQKSLSLSLG
heavy: EIQLQQSGPELVKPGASVKVSCKASGYSFTDYNMYWVKQSHGESLEWIGYIDPYNGGTRYNQKFKGKATLTVDKSSSTAFMHLNSLTSEDSAVYYCARNGHWDGAWFAYWGQGTLVTVSAASTKGPSVFPLAPCSRSTSESTAALGCLVKDYFPEPVTVSWNSGALTSGVHTFPAVLQSSGLYSLSSVVTVPSSSLGTKTYTCNVDHKPSNTKVDKRVESKYGPPCPPCPAPEFLGGPSVFLFPPKPKDTLMISRTPEVTCVVVDVSQEDPEVQFNWYVDGVEVHNAKTKPREEQFNSTYRVVSVLTVLHQDWLNGKEYKCKVSNKGLPSSIEKTISKAKGQPREPQVCTLPPSQEEMTKNQVSLSCAVKGFYPSDIAVEWESNGQPENNYKTTPPVLDSDGSFFLVSRLTVDKSRWQEGNVFSCSVMHEALHNHYTQKSLSLSLG
light: DIQMNQSPSSLSASLGDTITITCHASQNINVWLSWYQQKPGNIPKLLIYKASNLHTGVPSRFSGSRSGTGFTLTISSLQPEDIATYYCHQGQSYPFTFGSGTKLEIKRTVAAPSVFIFPPSDEQLKSGTASVVCLLNNFYPREAKVQWKVDNALQSGNSQESVTEQDSKDSTYSLSSTLTLSKADYEKHKVYACEVTHQGLSSPVTKSFNRGEC
notes: IL-2 del STLT and I129A; E44 format, IgG4
B2: W3XX115-T2U0.E44-25.uIgG4V1 (Fc fusion)
chain: APTSSSTKKTQLQLEHLLLDLQMILNGINNYKNPKLTRMLTFKFYMPKKATELKHLQCLEEELKPLEEVLNLAQSKNFHLRPRDLISNINVIVLELKGSETTFMCEYADETATIVEFLNRWITFCQSIIKYGPPCPPCPAPEFLGGPSVFLFPPKPKDTLMISRTPEVTCVVVDVSQEDPEVQFNWYVDGVEVHNAKTKPREEQFNSTYRVVSVLTVLHQDWLNGKEYKCKVSNKGLPSSIEKTISKAKGQPREPQVYTLPPCQEEMTKNQVSLWCLVKGFYPSDIAVEWESNGQPENNYKTTPPVLDSDGSFFLYSRLTVDKSRWQEGNVFSCSVMHEALHNHYTQKSLSLSLG
heavy: B1 heavy
light: B1 light
notes: IL-2 del STLT and 2 aa deleted in IgG4 N-terminal hinge; E44 format
B3: W3XX115-T2U0.E44-29.uIgG4V1 (Fc fusion)
chain: B1 chain with A129S
heavy: B1 heavy
light: B1 light
notes: IL-2 del STLT and I129S; E44 format, IgG4
B4: W3XX115-T2U0.E44-24.uIgG4V1 (Fc fusion)
chain: APTSSSTKKTQLQLEHLLLDLQMILNGINNYKNPKLTRMLTFKFYMPKKATELKHLQCLEEELKPLEEVLNLAQSKNFHLRPRDLISNINVIVLELKGSETTFMCEYADETATIVEFLNRWITFCQSIISKYGPPCPPCPAPEFLGGPSVFLFPPKPKDTLMISRTPEVTCVVVDVSQEDPEVQFNWYVDGVEVHNAKTKPREEQFNSTYRVVSVLTVLHQDWLNGKEYKCKVSNKGLPSSIEKTISKAKGQPREPQVYTLPPCQEEMTKNQVSLWCLVKGFYPSDIAVEWESNGQPENNYKTTPPVLDSDGSFFLYSRLTVDKSRWQEGNVFSCSVMHEALHNHYTQKSLSLSLG
heavy: B1 heavy
light: B1 light
notes: IL-2 del STLT and 1 aa deleted in IgG4 N-terminal hinge; E44 format

Positions count from the first letter of the chain named. In names and notes the source's numbering stands.

The first experiment concerns the target T1, Human IL-2Rβ/γ (intermediate affinity …). The experiment is described as follows: cell-based or functional assay.
Regarding B1, the “Potency in human CD8+ T EC50” value is 446 nM and the “Potency reduction (CD8+ T)” value came out at 22.3 fold.
On the same counts, the results for B2 are 84.9 nM and 4.2 fold.
On to B3, for which the “Potency in human CD8+ T EC50” value was determined as 406 nM and the “Potency reduction (CD8+ T)” value was 20.3 fold.
For the molecule B4, the “Potency in human CD8+ T EC50” value is 125 nM and the “Potency reduction (CD8+ T)” value stood at 6.3 fold.

In a further experiment the target is T2, Human IL-2Rα/β/γ complex (high affinity …). Put plainly: cell-based or functional assay.
With B1, the “Potency in human Treg EC50” value is 0.095 nM and the “Potency reduction (Treg)” value was determined as 37.6 fold.
In the case of B2, the “Potency in human Treg EC50” value turned out to be 0.022 nM and the “Potency reduction (Treg)” value was 8.8 fold.
As for B3, the “Potency in human Treg EC50” value was determined as 3.76 nM and the “Potency reduction (Treg)” value stood at 1490 fold.
As for B4, the “Potency in human Treg EC50” value was determined as 0.003 nM and the “Potency reduction (Treg)” value turned out to be 1.2 fold.

The target is the same in another experiment. The experiment is described as follows: FACS, MJ20 cells. On the procedure: (§1) Human cutaneous T cell lymphoma HH cells, malignant non-Hodgkin's lymphoma NK92 cells and cutaneous T cell lymphoma MJ20 cells were used for binding assay. They both constitutively express IL-2Rβ (CD122) and […] (CD132), and NK92 and MJ20 also expresses IL-2Rα (CD25). HH, NK92 and MJ20 cells were cultured following ATCC guidance, then transferred to a 96-plate for binding analysis. Cells were incubated with IL-2/Fc fusion proteins at the indicated concentrations for 30 min at 4° C. to avoid internalization. Binding was detected by 2nd antibody of PE-anti-human Fc at 4° C. for another 30 min. The median fluorescence intensity (MFI) on HH and NK92 cells was measured using FACS.
(§2) Affinity of IL-2 variants to IL-2Rα/β/γ supported the same results (FIG. 8 and Table 7). […] And T2U0.E44-26, T2U0.E44-27, T2U0.E44-29 and T2U0.E44-30 induced hundreds to thousands affinity reduction in Treg compared to T2U0.E44-1. Binding curves in MJ20 cells (IL-2Rα/β/γ) also achieved similar trend (FIG. 8b). As a result, the method of C-terminal truncation and substitution of 129 was available to achieve IL-2Rβγ attenuated IL-2 variants.
Background: A flow cytometer gives signals particle by particle.
With B1, the EC50 (commonly the concentration needed to bring the measured effect to its halfway point) came out at 103 nM.
Same read-out and setting: in the case of B2 it was 63.2 nM.
Still for that read-out and setting: the same measure for B3: 233 nM; for B4: 18.4 nM.

Another experiment deals with T1, Human IL-2Rβ/γ (intermediate affinity …). The experiment is described as follows: FACS, HH cells. On the procedure: as §1
As to B1, the EC50 is 839 nM. That is a sub-micromolar value.
On the same count and under the same terms, the same measure for B2: 1280 nM; for B3: 1550 nM.
The same measure, in the same setting: in the case of B4 it was 438 nM.

Another experiment shares this target. Put plainly: FACS, HH cells; EC50 fold vs T2U0.E44-1. How it is done: as §1
Molecule B1 yielded an Affinity reduction of 15.6 fold.
The same measure, in the same setting: in the case of B2 it was 23.8 fold.
Same read-out and setting: the same measure for B3: 28.8 fold.
B4 showed an Affinity reduction of 8.1 fold.

The target of the next experiment is T2, Human IL-2Rα/β/γ complex (high affinity …). The experiment is described as follows: FACS, MJ20 cells; EC50 fold vs T2U0.E44-1. How it is done: as §1, §2
The molecule B1 showed an Affinity reduction of 7.4 fold.
Same read-out and setting: the same measure for B2: 4.5 fold.
Still for that read-out and setting: in the case of B3 it was 17 fold; in that of B4, 1.3 fold.

The values are drawn from patent US20250000946A1 (WUXI BIOLOGICS IRELAND, published 2025).
